Source: the supplement of paper PMC7125110
± gives the standard error. Variants at the floor of the assay were thinned out.

B1: glmS ribozyme (parent)
chain: AUAAAAGCGCCAGAACUACAGAAAUGUAGUUGACGAGGAGGAGGUUUAUCGAAUUUUCGGCGGAUGCCUCCAAA

Variants of: B1
Assay: self-cleavage kobs at 10000 uM GlcN6P; higher = faster cleavage; RNA array
Conditions: with glucosamine-6-phosphate
Summary of the method: (§1)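 Barcoded glmS ribozyme variants on sequenced MiSeq chips were transcribed in situ by E. coli RNA polymerase and tracked through a hybridised Cy3 probe at 37 °C. Glucosamine-6-phosphate (40 μM to 10 mM) in HEPES/KCl/Mg(OAc)2 buffer was flowed in, and tiles were imaged over ~14 h. Signals were normalised to baseline and to non-cleaving reference variants; per-tile medians were fit to one- or two-exponential decays to give kobs. kcat and KM came from weighted Michaelis–Menten fits across concentrations.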

Variant	self-cleavage kobs at 10000 uM GlcN6P
A42C G44C G51U G66A	< 1e-05 s⁻¹
C8G C16U C68A	< 1e-05 s⁻¹
G7A C34U U57A	< 1e-05 s⁻¹
C8G C34U G43U G62U C71U	< 1e-05 s⁻¹
G40A U45C U65G C67G	0.00034 ± 0.00012 s⁻¹
C8G C10U U54G	< 1e-05 s⁻¹
G38C A42G A64G	< 1e-05 s⁻¹
C34A G51A C67G C70A	< 1e-05 s⁻¹
A15G A52G C71U	0.00137 ± 0.00021 s⁻¹
G44A C58A C67U	0.000308 ± 6.5e-05 s⁻¹
U54A C58U	6.81e-05 ± 1e-05 s⁻¹
G9C U46A C58U	< 1e-05 s⁻¹
A33G A48C	< 1e-05 s⁻¹
A33U A42C U49A C58G C61G	< 1e-05 s⁻¹
A14U A52C U57A C71U	< 1e-05 s⁻¹
A42U C58U G59U U65A C70G	< 1e-05 s⁻¹
G37C A42C U57A	< 1e-05 s⁻¹
G13U G37C G43C	< 1e-05 s⁻¹
U49G C61G	< 1e-05 s⁻¹
G41C C58A C61U	< 1e-05 s⁻¹
A33U G35C C71G	< 1e-05 s⁻¹

Variant	self-cleavage kobs at 10000 uM GlcN6P
G32U G43U U69C	< 1e-05 s⁻¹
A14G G29A U30C A39G	4.63e-05 ± 1.6e-05 s⁻¹
U45G G59A	7.24e-05 ± 1.4e-05 s⁻¹
G32A U69G C71A	4.49e-05 ± 1.6e-05 s⁻¹
G43A U55G U57A U65G	< 1e-05 s⁻¹
C10U U49G C58G	< 1e-05 s⁻¹
A14C U55G C67G	0.000215 ± 3.8e-05 s⁻¹
A15U G40U U54A	7.33e-05 ± 1.6e-05 s⁻¹
U31C U57C	5.52e-05 ± 1.3e-05 s⁻¹
G29C U45A U46A A52U	3.37e-05 ± 1.4e-05 s⁻¹
G43A U57C G59U A64U	< 1e-05 s⁻¹
A12C A14G U54A	0.0236 ± 0.0056 s⁻¹
C50G A53C C71A	6.73e-05 ± 2.7e-05 s⁻¹
A14U U45G C61U	< 1e-05 s⁻¹
A12G G37A G43A A52G	< 1e-05 s⁻¹
U49A C61A	< 1e-05 s⁻¹
G41U U69A	3.54e-05 ± 1.5e-05 s⁻¹
U55G C61A C71G	< 1e-05 s⁻¹
A14C U57A C67A	3.08e-05 ± 1.4e-05 s⁻¹
G9U A12G G37U	< 1e-05 s⁻¹
G9A A15U G29U C68G	< 1e-05 s⁻¹

Variant	self-cleavage kobs at 10000 uM GlcN6P
A36U A42U C61U	< 1e-05 s⁻¹
G29U U54A C71U	0.00223 ± 0.00064 s⁻¹
G13U A39G G63C	< 1e-05 s⁻¹
U30G G35A G40C C68G	< 1e-05 s⁻¹
A6C G7C G32A A52U	< 1e-05 s⁻¹
A42G U49A C50G	< 1e-05 s⁻¹
C8A G13A U46A	< 1e-05 s⁻¹
U30C U31G A33G U69G	< 1e-05 s⁻¹
G9C G32C C71U	< 1e-05 s⁻¹
G43U C50U G63A	< 1e-05 s⁻¹
U30A G32A G41C G51C C61A C71U	< 1e-05 s⁻¹
A39G U49G	0.000904 ± 0.00021 s⁻¹
C8G A15U A39U G51A A52G G60U	< 1e-05 s⁻¹
A14G G37C U45A U49C G59U	< 1e-05 s⁻¹
C16A U31C G41C C68A	< 1e-05 s⁻¹
C11A A48G C50A C70A	5.38e-05 ± 1.9e-05 s⁻¹
A33U U45A U46G	0.000433 ± 5.7e-05 s⁻¹
G7U G32U G59C G62U U65G	< 1e-05 s⁻¹
A15C C16G G37C C58A G63C	< 1e-05 s⁻¹
C10G U55C	< 1e-05 s⁻¹
G43C U49C	< 1e-05 s⁻¹

Variant	self-cleavage kobs at 10000 uM GlcN6P
G9A U30C G35U U55G	< 1e-05 s⁻¹
U30C A36U G44U C67G	< 1e-05 s⁻¹
G29C A64G C70U	3.15e-05 ± 1.4e-05 s⁻¹
U31A G43C C68U	0.000192 ± 5.2e-05 s⁻¹
G35C A42U C71U	< 1e-05 s⁻¹
G9A A39C G41A A48C U49A	< 1e-05 s⁻¹
G40A U65G C71U	0.0033 ± 0.00061 s⁻¹
C11A U54G A64G U69G	9.78e-05 ± 2.2e-05 s⁻¹
A14U U30G U31C	0.000695 ± 0.00016 s⁻¹
U54C G66C	0.00113 ± 0.00015 s⁻¹
G38A G43C U65G	< 1e-05 s⁻¹
G32C A48C U55C G59A G63A	< 1e-05 s⁻¹
U30G G37C U45A A52G	< 1e-05 s⁻¹
G9U G41A C50U G60C	< 1e-05 s⁻¹
A12G C58A C70G	3.02e-05 ± 1.3e-05 s⁻¹
A14C U65G C68U	0.000226 ± 4.7e-05 s⁻¹
A14U A36G A64G C70G	< 1e-05 s⁻¹
A6C U30G G35U	< 1e-05 s⁻¹
A12U A14G G41A A42G	0.000918 ± 0.0002 s⁻¹

Variants of: B1
Assay: self-cleavage kobs at 2500 uM GlcN6P; higher = faster cleavage; RNA array
Conditions: with glucosamine-6-phosphate
Summary of the method: as §1

Variant	self-cleavage kobs at 2500 uM GlcN6P
A14U U57A A64G	3.21e-05 ± 1.3e-05 s⁻¹
C10A C11A A39C	< 1e-05 s⁻¹
